Source: patent publication US20040086863A1

Assays:
[1] = target: IRS-1, endogenous in Rat-1 fibroblasts and L6GLUT4myc myoblasts (UniProt P35570); experiment: cell-based or functional assay
[2] = target: IRS-1, endogenous in COS cells; experiment: cell-based or functional assay
IRS-1, endogenous in COS cells, sequence (Q28224 whole entry): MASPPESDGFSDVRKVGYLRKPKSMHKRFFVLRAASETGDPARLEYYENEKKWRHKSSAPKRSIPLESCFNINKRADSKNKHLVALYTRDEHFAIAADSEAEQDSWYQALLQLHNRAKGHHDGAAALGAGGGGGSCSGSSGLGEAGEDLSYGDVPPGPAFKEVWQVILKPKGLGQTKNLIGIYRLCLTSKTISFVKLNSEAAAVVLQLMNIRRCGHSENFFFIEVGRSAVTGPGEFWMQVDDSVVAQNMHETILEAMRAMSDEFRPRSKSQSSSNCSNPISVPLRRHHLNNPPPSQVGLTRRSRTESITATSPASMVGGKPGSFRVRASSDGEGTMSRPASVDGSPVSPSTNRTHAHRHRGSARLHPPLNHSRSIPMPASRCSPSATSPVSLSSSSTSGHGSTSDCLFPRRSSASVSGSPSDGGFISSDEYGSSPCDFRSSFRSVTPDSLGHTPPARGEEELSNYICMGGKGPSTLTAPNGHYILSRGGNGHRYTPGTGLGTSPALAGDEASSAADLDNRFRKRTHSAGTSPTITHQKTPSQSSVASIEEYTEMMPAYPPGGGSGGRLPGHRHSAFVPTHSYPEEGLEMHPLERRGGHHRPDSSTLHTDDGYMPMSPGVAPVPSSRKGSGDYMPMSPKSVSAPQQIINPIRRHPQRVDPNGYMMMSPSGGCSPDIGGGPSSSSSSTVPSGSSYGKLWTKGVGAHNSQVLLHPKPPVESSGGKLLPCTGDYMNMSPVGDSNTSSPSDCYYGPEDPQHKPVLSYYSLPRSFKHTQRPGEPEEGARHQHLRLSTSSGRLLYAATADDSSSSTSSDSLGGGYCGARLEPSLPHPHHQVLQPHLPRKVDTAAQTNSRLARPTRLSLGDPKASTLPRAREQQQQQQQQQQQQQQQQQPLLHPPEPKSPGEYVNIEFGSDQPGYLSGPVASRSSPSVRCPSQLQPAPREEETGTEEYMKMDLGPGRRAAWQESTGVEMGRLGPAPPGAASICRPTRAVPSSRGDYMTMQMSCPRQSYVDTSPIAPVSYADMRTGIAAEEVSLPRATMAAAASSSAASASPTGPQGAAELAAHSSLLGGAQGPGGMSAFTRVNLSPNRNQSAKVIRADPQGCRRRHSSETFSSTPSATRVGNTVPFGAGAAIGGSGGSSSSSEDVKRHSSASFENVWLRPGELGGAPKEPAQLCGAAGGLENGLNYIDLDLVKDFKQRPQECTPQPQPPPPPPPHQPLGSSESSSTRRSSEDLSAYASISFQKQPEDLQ

IRS-1, endogenous in Rat-1 fibroblasts and L6GLUT4myc myoblasts, sequence (P35570 whole entry): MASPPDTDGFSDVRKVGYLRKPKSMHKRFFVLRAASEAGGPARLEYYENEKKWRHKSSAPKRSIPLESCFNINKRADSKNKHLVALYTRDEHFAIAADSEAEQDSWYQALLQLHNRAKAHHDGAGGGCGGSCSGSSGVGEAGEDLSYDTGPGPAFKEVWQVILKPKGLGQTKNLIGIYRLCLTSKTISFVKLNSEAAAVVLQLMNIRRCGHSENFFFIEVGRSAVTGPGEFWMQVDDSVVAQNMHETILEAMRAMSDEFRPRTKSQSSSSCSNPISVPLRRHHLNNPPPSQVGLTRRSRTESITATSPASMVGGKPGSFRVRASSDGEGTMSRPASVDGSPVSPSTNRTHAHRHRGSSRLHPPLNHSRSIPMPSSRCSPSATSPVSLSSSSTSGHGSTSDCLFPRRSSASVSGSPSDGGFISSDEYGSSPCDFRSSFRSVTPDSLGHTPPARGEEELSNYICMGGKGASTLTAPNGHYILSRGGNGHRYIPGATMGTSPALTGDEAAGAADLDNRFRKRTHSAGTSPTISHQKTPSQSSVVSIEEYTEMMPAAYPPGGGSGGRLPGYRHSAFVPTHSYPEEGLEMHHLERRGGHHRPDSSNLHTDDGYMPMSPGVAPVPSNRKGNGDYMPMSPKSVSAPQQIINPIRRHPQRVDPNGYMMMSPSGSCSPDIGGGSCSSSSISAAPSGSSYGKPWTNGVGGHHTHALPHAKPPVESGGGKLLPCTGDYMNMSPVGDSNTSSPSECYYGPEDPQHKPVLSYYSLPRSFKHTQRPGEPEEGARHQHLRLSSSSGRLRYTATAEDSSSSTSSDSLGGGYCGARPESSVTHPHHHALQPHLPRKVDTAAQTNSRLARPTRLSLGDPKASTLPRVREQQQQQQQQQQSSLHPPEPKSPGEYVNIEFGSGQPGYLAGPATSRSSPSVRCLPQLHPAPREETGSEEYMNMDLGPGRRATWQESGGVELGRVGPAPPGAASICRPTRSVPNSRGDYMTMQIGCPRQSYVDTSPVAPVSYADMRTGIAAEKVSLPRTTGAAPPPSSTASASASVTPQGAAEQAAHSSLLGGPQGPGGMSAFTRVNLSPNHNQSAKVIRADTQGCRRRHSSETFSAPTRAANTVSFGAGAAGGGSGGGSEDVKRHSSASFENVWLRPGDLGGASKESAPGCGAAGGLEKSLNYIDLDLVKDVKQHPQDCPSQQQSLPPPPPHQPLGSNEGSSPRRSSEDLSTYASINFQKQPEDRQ

HA-tagged dominant-negative PHIP (DN-PHIP), PHIP PBR region alone (residues 8-209) (from UniProt Q8VDD9 927-1128)
insulin-dependent GLUT4myc membrane translocation in L6GLUT4myc myoblasts [1]: > 90% | IRS-1 tyrosine phosphorylation in insulin-treated cells [2]: > 5 fold
